# No end group written: not given here.
# Assays:
# [1] = biological target: AαB56γCα PP2A holoenzyme (human, UniProt P30153 2-589; Q13362 1-524; P67775 1-309); assay: SEC + other: dynamic light scattering
# [2] = biological target: FLAG-tagged MBP-Sgo1(47-105) (human, UniProt Q5FBB7 47-105); assay: pull-down
# [3] = biological target: FLAG-tagged MBP-Sgo1(47-105) N61I (dimerization assay) (human, UniProt Q5FBB7 47-105, N61I); assay: pull-down
# [4] = biological target: FLAG-tagged MBP-Sgo1(47-105) N60A/K62A (dimerization assay) (human, UniProt Q5FBB7 47-105, N60A | K62A); assay: pull-down
# [5] = biological target: FLAG-tagged MBP-Sgo1(47-105) Y57A/K62A (dimerization assay) (human, UniProt Q5FBB7 47-105, Y57A | K62A); assay: pull-down
# [6] = biological target: FLAG-Sgo1(51-105) peptide (human, UniProt Q5FBB7 51-105); assay: pull-down
# [7] = biological target: FLAG-tagged MBP-Sgo1(47-105) Y57A/N60A (dimerization assay) (human, UniProt Q5FBB7 47-105, Y57A | N60A); assay: pull-down
# [8] = biological target: PP2A C subunit (Cα) (human, UniProt P67775 1-309); assay: crystal structure
# Sequence of PP2A C subunit (Cα) (P67775 whole entry): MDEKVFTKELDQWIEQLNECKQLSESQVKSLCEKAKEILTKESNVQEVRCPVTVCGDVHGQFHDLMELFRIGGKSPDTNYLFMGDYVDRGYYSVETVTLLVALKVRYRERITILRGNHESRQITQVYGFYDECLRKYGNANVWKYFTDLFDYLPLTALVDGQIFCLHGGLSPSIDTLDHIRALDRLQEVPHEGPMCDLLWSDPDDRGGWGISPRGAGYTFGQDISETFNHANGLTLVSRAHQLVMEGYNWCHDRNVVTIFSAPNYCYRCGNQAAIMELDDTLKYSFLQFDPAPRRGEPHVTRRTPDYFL
# Sequence of AαB56γCα PP2A holoenzyme (P30153 2-589, chain 1 of 3): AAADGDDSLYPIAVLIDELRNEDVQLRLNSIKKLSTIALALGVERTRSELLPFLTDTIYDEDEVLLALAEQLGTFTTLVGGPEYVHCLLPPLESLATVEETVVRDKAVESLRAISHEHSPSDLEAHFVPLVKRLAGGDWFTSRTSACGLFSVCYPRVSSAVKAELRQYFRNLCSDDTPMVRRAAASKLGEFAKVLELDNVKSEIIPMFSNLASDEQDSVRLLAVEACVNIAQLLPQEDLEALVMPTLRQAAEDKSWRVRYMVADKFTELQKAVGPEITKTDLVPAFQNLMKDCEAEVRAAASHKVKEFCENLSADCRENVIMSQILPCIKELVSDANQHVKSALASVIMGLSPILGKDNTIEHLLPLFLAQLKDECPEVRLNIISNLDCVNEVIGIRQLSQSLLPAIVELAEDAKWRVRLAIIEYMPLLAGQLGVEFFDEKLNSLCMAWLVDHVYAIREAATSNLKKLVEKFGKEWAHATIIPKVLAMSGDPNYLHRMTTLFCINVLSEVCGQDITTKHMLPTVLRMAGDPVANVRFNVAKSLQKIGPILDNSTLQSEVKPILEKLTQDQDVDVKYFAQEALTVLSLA
# Sequence of AαB56γCα PP2A holoenzyme (Q13362 whole entry, chain 2 of 3): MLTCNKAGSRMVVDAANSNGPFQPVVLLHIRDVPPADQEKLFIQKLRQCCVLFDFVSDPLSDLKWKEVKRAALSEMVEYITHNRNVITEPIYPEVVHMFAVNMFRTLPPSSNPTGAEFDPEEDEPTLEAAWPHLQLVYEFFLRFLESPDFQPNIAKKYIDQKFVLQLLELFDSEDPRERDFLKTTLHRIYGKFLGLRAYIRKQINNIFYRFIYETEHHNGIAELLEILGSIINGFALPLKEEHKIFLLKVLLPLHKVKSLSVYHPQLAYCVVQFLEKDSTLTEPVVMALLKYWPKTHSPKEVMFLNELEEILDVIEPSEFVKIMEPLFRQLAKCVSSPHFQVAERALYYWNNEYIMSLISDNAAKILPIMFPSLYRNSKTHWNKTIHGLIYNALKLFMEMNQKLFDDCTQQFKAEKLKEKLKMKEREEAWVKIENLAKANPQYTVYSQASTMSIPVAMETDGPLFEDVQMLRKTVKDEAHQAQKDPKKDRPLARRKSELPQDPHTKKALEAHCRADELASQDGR
# Sequence of AαB56γCα PP2A holoenzyme (P67775 whole entry, chain 3 of 3): as the sequence (P67775 whole entry) above
binder,measurement,setting,value
"MBP-Sgo1(51-105) (domain or fragment, human, UniProt Q5FBB7 51-105, looked up) STLLKNYQDNNKMLVLALENEKSKVKEAQDIILQLRKECYYLTCQLYALKGKLTS",stoichiometry N,[1],2 Sgo1 per PP2A holoenzyme
same,binding result,[2],binds
"MBP-Sgo1(51-105) N61I, untagged (dimerization assay) (domain or fragment, human, UniProt Q5FBB7 51-105, looked up, cysteine pairing not given here; also: MBP fusion) STLLKNYQDNIKMLVLALENEKSKVKEAQDIILQLRKECYYLTCQLYALKGKLTS",binding result,[3],binds
"MBP-Sgo1(51-105) N60A/K62A, untagged (dimerization assay) (domain or fragment, human, UniProt Q5FBB7 51-105, looked up, cysteine pairing not given here; also: MBP fusion) STLLKNYQDANAMLVLALENEKSKVKEAQDIILQLRKECYYLTCQLYALKGKLTS",binding result,[4],binds
"MBP-Sgo1(51-105) Y57A/K62A, untagged (dimerization assay) (domain or fragment, human, UniProt Q5FBB7 51-105, looked up, cysteine pairing not given here; also: MBP fusion) STLLKNAQDNNAMLVLALENEKSKVKEAQDIILQLRKECYYLTCQLYALKGKLTS",binding result,[5],binds
"Sgo1(51-105) (peptide, UniProt Q5FBB7 51-105, looked up) STLLKNYQDNNKMLVLALENEKSKVKEAQDIILQLRKECYYLTCQLYALKGKLTS",stoichiometry N,[1],2 Sgo1 per PP2A holoenzyme
same,binding result,[6],binds
"MBP-Sgo1(51-105) Y57A/N60A, untagged (dimerization assay) (domain or fragment, human, UniProt Q5FBB7 51-105, looked up, cysteine pairing not given here; also: MBP fusion) STLLKNAQDANKMLVLALENEKSKVKEAQDIILQLRKECYYLTCQLYALKGKLTS",binding result,[7],binds
"STLLKNYQDNNKMLVLALENEKSKVKEAQDIILQLRKECYYLTCQL (peptide, UniProt Q5FBB7 51-96, looked up) [Sgo1(51-96) peptide]",binding result,[8],binds

# — PMC2749713 (Molecular cell, 2009)
